Data from paper PMC7192595.

“MBP-Leish4E-IP2_(1-134) (domain or fragment)” showed a reduction of the binding of SBP-LeishIF4E-3 (cell lysate) to m7GTP-agarose by 0, 5, 10, 20 ug MBP-Leish4E-IP2 (1-134) per 300 ul, densitometry of anti-SBP blots; 60% at 5 ug (LeishIF4E-3-SBP) of 96% and a reduction of the binding of SBP-LeishIF4E-1 (cell lysate) to m7GTP-agarose by 0, 5, 10, 20 ug MBP-Leish4E-IP2 (1-134) per 300 ul, densitometry of anti-SBP blots; 13% at 5 ug; MBP alone had no effect (LeishIF4E-1-SBP) of 42%.
